Test results published in patent publication US9592268B2, “Endothelium protective materials and methods of use” (CORNELL UNIVERSITY, priority 2011, dated 2017).

Tests used:
HUVEC [1] = assay: HUVEC migration (chemotaxis chamber) assay; format: cell-based, human
Experimental: FIG. 4. ApoM-bound S1P activates S1P1-mediated intracellular signaling pathways and affects migration of HUVEC. (A) Confocal microscopy of HEK293 cells stably expressing S1P1-GFP. Cells were serum starved, stimulated for 1 h with indicated ligands, fixed and imaged. ApoM^+HDL (equivalent to ˜100 nM S1P as determined by LC/MS/MS) or ApoM^−HDL was used at 100 μg/ml. Fatty acid free BSA and r-apoM were complexed with S1P and used at the final concentration of 100 nM (equimolar for both protein and lipid). Scale bar, 20 μm. […] Activation of p44/42, and Akt was examined by western blot analysis using phospho-specific antibodies. (C) HUVEC were serum starved and pre-treated with 1 μM VPC44116 for 30 min where indicated and subjected to migration assay with 10 μg/ml apoM^+HDL (10 nM S1P) or 10 μg/ml apoM^−HDL or 10 nM albumin-S1P. Data are mean±SD, n=3. * p<0.01. (D) Microscopy of HUVEC that were serum starved and stimulated with 100 μg/ml apoM^+HDL, apoM^−HDL, 100 nM albumin-S1P, r-apoM-S1P or 100 nM S1P-free r-apoM for 1 h. […] Scale bar, 20 μm. […]
General Methods. […] Numerical differences were analyzed with two-tailed Student's t test.
Migration Assays. […] The filter was scanned, and the color density of each well was quantified using ImageJ software. […]

HUVEC [2] = assay: adherens junction assembly assay (VE-cadherin immunostaining) in HUVEC; format: cell-based, human; details: HUVEC stimulated 1 h; HDL 100 μg/ml; S1P complexes or r-apoM 100 nM
Experimental: (§1) FIG. 4. ApoM-bound S1P activates S1P1-mediated intracellular signaling pathways and affects migration of HUVEC. (A) Confocal microscopy of HEK293 cells stably expressing S1P1-GFP. Cells were serum starved, stimulated for 1 h with indicated ligands, fixed and imaged. ApoM^+HDL (equivalent to ˜100 nM S1P as determined by LC/MS/MS) or ApoM^−HDL was used at 100 μg/ml. Fatty acid free BSA and r-apoM were complexed with S1P and used at the final concentration of 100 nM (equimolar for both protein and lipid). Scale bar, 20 μm. […] Activation of p44/42, and Akt was examined by western blot analysis using phospho-specific antibodies. (C) HUVEC were serum starved and pre-treated with 1 μM VPC44116 for 30 min where indicated and subjected to migration assay with 10 μg/ml apoM^+HDL (10 nM S1P) or 10 μg/ml apoM^−HDL or 10 nM albumin-S1P. Data are mean±SD, n=3. * p<0.01. (D) Microscopy of HUVEC that were serum starved and stimulated with 100 μg/ml apoM^+HDL, apoM^−HDL, 100 nM albumin-S1P, r-apoM-S1P or 100 nM S1P-free r-apoM for 1 h. […] Scale bar, 20 μm. HUVEC were serum starved and stimulated for 5 min with 30 nM albumin-S1P, r-apoM-S1P, 10 μg/mL ApoM+ HDL, or 30 nM S1P-free r-apoM (E) or with increasing concentrations of albumin or r-apoM-S1P (F). Activation of p44/42 and Akt was examined by Western blot analysis using phospho-specific antibodies. […]

VCAM-1 = assay: TNFα-induced cell surface VCAM-1 expression in HUVEC by flow cytometry; format: cell-based, human; details: for suppression of cytokine-induced VCAM-1 expression: human endothelial cells (FIG. 9)
Experimental: FIG. 9. ApoM/S1P inhibition of endothelial cell VCAM-1 expression. Human umbilical vein endothelial cells (HUVEC) were treated with TNFα for 3 hr. Some cells were co-treated with recombinant (r)ApoM (100 nM) or rApoM/S1P complex (100 nM) or albumin/S1P complex (100 nM) for the same amount of time. The cells were then analyzed for the cell surface expression of Vascular cell adhesion molecule (VCAM)-1 by flow cytometry. Note that ApoM/S1P complex inhibited (˜40%) TNFα-induced VCAM-1 expression.
Inflammation of vascular endothelial cells is a critical initiating event in atherosclerosis, which leads to heart attacks and strokes. Endothelial cell inflammation is induced by cytokines such as TNFα and IL-1β. When endothelial cells are exposed to such cytokines, an inflammatory program of gene expression is induced, resulting in the formation of adhesion molecules such as VCAM-1, which in turn is needed for the recruitment of monocytes into the blood vessel wall. […] Thus, ApoM/S1P complexes can be used to suppress vascular inflammation as a potential treatment for atherosclerosis.

S1P1 receptor = target: T1, S1P1 receptor (Homo sapiens, UniProt P21453); assay: S1P1 internalization in HEK293 cells stably expressing S1P1-GFP; format: cell-based; details: stimulated 1 h; HDL 100 μg/ml; S1P complexes 100 nM
T1 construct: expressed in transfected cells
T1 sequence (P21453 whole entry): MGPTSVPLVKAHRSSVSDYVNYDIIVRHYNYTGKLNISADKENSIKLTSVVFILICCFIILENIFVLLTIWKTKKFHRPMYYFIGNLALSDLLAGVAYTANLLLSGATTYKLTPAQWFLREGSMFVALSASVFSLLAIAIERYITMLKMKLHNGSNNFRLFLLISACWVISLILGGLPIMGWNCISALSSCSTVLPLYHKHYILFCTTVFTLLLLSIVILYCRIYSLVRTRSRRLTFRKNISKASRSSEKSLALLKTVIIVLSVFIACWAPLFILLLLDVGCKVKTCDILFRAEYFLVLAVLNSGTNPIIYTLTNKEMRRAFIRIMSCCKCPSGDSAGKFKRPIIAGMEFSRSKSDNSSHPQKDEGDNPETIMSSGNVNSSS
Experimental: as §1, with “(F).” for “(F). Activation of p44/42 and Akt was examined by Western blot analysis using phospho-specific antibodies.”
General Methods. […] Numerical differences were analyzed with two-tailed Student's t test. […]

B1: r-apoM-bound S1P: S1P complexed with equi-molar recombinant apoM (protein, UniProt O95445 1-188, looked up)
Apolipoprotein M: MFHQIWAALLYFYGIILNSIYQCPEHSQLTTLGVDGKEFPEVHLGQWYFIAGAAPTKEELATFDPVDNIVFNMAAGSAPMQLHLRATIRMKDGLCVPRKWIYHLTEGSTDLRTEGRPDMKTELFSSSCPGGIMLNETGQGYQRFLLYNRSPHPPEKCVEEFKSLTSCLDSKAFLLTPRNQEACELSNN
modifications: complexed with S1P
chemoattractant activity compared with albumin-bound S1P (HUVEC [1]; increasing concentrations (FIG. 4G)): slightly higher activity
chemotaxis of HUVEC toward chemoattractant (HUVEC [1]; serum-starved HUVEC, 4 h at 37° C.): worked as chemoattractants in a concentration-dependent manner
adherens junction and F-actin formation (HUVEC [2]): well-spread, contained F-actin and formed adherens junctions
inhibition of TNFα-induced VCAM-1 expression (VCAM-1; 100 nM, co-treated with TNFα for 3 hr): ~40%
suppression of cytokine-induced VCAM-1 expression (VCAM-1): significant suppression
internalization of GFP-S1P1 receptor (S1P1 receptor): induced robust internalization

B2: r-apoM without S1P: recombinant apoM not complexed with S1P (protein, UniProt O95445 1-188, looked up)
Apolipoprotein M: B1 Apolipoprotein M
adherens junction and F-actin formation (HUVEC [2]): not efficiently induced
suppression of cytokine-induced VCAM-1 expression (VCAM-1): not seen
internalization of GFP-S1P1 receptor (S1P1 receptor): Neither apoM^−HDL nor r-apoM without S1P caused receptor internalization
